Measured values published in publication PMC4764553 (eLife, 2016).

Molecular target: T1, Human nucleosome core particle (human histone octamer with the 147-bp Widom 601 DNA) (human, UniProt P68431 1-136; P62805 1-103; P04908 1-130; P06899 1-126)
T1 construct: also called recombinant human NCP; human NCP
Experiment: ITC
Conditions: both partners purified

B1: IE1-CTD peptide (chromatin-tethering domain of hCMV IE1, a.a. 476–491) (peptide)
peptide: GGKSTHPMVTRSKADQ
  Kd: 0.4 µM

B2: Full-length hCMV (Towne) IE1 (natural protein)
chain: MESSAKRKMDPDNPDEGPSSKVPRPETPVTKATTFLQTMLRKEVNSQLSLGDPLFPELAEESLKTFERVTEDCNENPEKDVLAELVKQIKVRVDMVRHRIKEHMLKKYTQTEEKFTGAFNMMGGCLQNALDILDKVHEPFEEMKCIGLTMQSMYENYIVPEDKREMWMACIKELHDVSKGAANKLGGALQAKARAKKDELRRKMMYMCYRNIEFFTKNSAFPKTTNGCSQAMAALQNLPQCSPDEIMAYAQKIFKILDEERDKVLTHIDHIFMDILTTCVETMCNEYKVTSDACMMTMYGGISLLSEFCRVLSCYVLEETSVMLAKRPLITKPEVISVMKRRIEEICMKVFAQYILGADPLRVCSPSVDDLRAIAEESDEEEAIVAYTLATRGASSSDSLVSPPESPVPATIPLSSVIVAENSDQEESEQSDEEEEEGAQEEREDTVSVKSEPVSEIEEVAPEEEEDGAEEPTASGGKSTHPMVTRSKADQ
  fold weaker binding than IE1-CTD alone: ~5 fold

B3: IE1-CTD mutant lacking the N-terminal segment (Δ476–480) (peptide)
peptide: HPMVTRSKADQ
  Kd: 12 µM
